This is an account of results in PMC7925690, “A molecular switch in sulfur metabolism to reduce arsenic and enrich selenium in rice grain” (Nature Communications, 2021).

The target in one test is T1, OsASTOL1 (Oryza sativa, UniProt Q9XEA6).
T1 construct: gene RCS1; mature form, N-terminal 87 residues (first 261 bp) deleted; C-terminal His tag (pET-29a NdeI/XhoI); E. coli BL21(DE3); Ni-NTA; dimer by SEC
The experiment in a line: microscale thermophoresis, RED-tris-NTA labelled His-tagged protein. The format is binding. Background: Microscale thermophoresis detects binding through changes in fluorescence in a small temperature gradient.

The target of another test is T2, AtOAS-TL A (Arabidopsis thaliana, UniProt P47998).
T2 construct: gene OASA1; full-length ORF, C-terminal His tag (pET-29a NdeI/XhoI); E. coli BL21(DE3); Ni-NTA
The description is as above. The class given is binding.

The target in test [1] is mature OsASTOL1 protein (untagged) (rice (Oryza sativa cv. Kasalath)) (UniProt Q9XEA6). The experiment in a line: SEC; HiLoad 16/60 Superdex 200 prep grade, 20 mM Tris-HCl, 150 mM NaCl, pH 7.5, 1 ml/min; 1 mg protein in 1 ml injected; molecular weight from a calibration curve. Background: Size exclusion chromatography separates by hydrodynamic size, large species first.
The target of test [2] is mature OsASTOL1^S189N protein (untagged) (rice (Oryza sativa cv. Kasalath)) (UniProt Q9XEA6). The description is as above.
A further test concerns the target T3, AtOAS-TL A-His (Arabidopsis thaliana, UniProt P47998 1-322, labeled with RED-tris-NTA 2nd Generation Dye).
T3 construct: Arabidopsis thaliana cytosolic O-acetylserine(thiol)lyase A; ORF without the stop codon; Cloned into the NdeI/XhoI sites of pET-29a; also called His-tagged AtOAS-TL A; source: E. coli BL21 (DE3), purified (Ni-NTA); not shown: His, C-terminal, kept
The experiment in a line: MST; His-tagged OAS-TL labeled with RED-tris-NTA 2nd Generation Dye (100 µM as printed) with a serial dilution of the AtSAT5C10 peptide; PBS pH 7.6, 0.05% Tween 20; Monolith NT.115. To be noted: both partners purified.

The next test addresses T4, AtOAS-TL A^S102N-His (Arabidopsis thaliana, UniProt P47998 1-322, S102N, labeled with RED-tris-NTA 2nd Generation Dye).
T4 construct: Arabidopsis thaliana cytosolic O-acetylserine(thiol)lyase A, site-directed mutant; ORF without the stop codon; Cloned into the NdeI/XhoI sites of pET-29a; also called His-tagged AtOAS-TL A^S102N; source: E. coli BL21 (DE3), purified (Ni-NTA); not shown: His, C-terminal, kept
The test is described as above. The settings on record: both partners purified.

T4 sequence (P47998 whole entry S102N): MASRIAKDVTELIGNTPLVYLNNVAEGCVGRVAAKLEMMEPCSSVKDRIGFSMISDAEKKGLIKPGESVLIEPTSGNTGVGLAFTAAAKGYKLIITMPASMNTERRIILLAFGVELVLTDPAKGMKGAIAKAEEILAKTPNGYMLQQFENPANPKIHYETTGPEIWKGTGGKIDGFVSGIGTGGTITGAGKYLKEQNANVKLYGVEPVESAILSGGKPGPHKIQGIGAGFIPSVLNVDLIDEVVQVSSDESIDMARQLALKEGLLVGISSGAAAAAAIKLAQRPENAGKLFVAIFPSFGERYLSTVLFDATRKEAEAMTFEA
T1 sequence (Q9XEA6 whole entry): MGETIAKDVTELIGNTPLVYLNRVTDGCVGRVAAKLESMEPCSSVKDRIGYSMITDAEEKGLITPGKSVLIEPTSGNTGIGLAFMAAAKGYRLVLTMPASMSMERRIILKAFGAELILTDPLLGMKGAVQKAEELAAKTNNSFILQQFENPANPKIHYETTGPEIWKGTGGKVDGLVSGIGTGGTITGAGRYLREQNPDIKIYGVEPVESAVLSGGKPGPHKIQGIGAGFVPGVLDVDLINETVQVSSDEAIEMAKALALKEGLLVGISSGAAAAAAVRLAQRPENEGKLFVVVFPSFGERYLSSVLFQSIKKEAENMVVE
T2 sequence (P47998 whole entry): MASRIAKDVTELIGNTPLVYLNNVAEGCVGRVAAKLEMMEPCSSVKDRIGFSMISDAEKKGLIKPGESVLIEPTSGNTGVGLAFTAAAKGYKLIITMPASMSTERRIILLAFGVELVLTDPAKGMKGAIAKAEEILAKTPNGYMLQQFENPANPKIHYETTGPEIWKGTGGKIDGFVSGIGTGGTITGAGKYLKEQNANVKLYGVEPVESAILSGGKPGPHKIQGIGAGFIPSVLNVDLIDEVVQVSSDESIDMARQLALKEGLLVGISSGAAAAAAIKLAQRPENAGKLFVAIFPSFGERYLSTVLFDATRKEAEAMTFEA
T3 sequence (P47998 whole entry): as above

As usually defined, the Kd is the constant that tells how readily two partners part at equilibrium. High values mean a looser complex, low ones a tighter complex. Consider `CC(=O)OC[C@H](N)C(=O)O` [OAS], for which the Kd was found to be 1.47 ± 2.42 nM at OsASTOL1 and 13.1 ± 4.83 nM on AtOAS-TL A. What is called stoichiometry N is the number of molecules, sites or subunits per partner or assembly. “mature OsASTOL1 protein (untagged) (from UniProt Q9XEA6 88-321) (enzyme)” yielded a stoichiometry N in test [1] of 2.

“mature OsASTOL1^S189N protein (untagged) (from UniProt Q9XEA6 88-321) (enzyme)” came in with a stoichiometry N in test [2] of 2.

B1: AtSAT5C10 peptide (peptide)
peptide: FISEWSDYII
notes: Ten C-terminal residues of Arabidopsis thaliana serine acetyltransferase 5 (AtSAT5), AT5G56760; also called C-terminal fragment of SAT5; AtSAT5C10 fragment; source: synthetic peptide (GenScript Biotech, Nanjing)
For B1, the binding result with AtOAS-TL A-His and in the test with AtOAS-TL A^S102N-His was “binds” each time.
